Target: ccnb2_human CCNB2 (UniProt O95067)
Sequence of UniProt O95067 (O95067 whole entry): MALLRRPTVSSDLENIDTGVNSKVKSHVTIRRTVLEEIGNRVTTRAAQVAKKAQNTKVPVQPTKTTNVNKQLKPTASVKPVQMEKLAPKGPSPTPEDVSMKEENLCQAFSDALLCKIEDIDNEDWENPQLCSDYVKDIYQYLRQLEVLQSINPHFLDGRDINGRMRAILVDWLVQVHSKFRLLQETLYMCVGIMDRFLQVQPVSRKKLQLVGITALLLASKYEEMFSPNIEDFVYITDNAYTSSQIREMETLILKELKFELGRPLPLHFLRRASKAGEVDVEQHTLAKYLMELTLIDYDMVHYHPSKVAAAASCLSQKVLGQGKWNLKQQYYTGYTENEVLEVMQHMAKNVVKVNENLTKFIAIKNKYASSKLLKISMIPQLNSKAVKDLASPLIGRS

- effect of a mutation on the interaction: disrupting interaction
Substance: Filamin-A (Homo sapiens), P21333 S1436G

— IntAct's records for PubMed 17408621
